In patent US20130071921A1 (Pfizer, published 2013):

Legend:
[1] = biological target: T1, recombinant mouse Dkk-2 (R&D systems Cat No. 2435-DK/CF) (mouse, UniProt Q9QYZ8 34-259, limits assumed); test: ELISA, plate-coated antigen
T1 construct: Bought; also called mDkk-2
T1 sequence (looked up): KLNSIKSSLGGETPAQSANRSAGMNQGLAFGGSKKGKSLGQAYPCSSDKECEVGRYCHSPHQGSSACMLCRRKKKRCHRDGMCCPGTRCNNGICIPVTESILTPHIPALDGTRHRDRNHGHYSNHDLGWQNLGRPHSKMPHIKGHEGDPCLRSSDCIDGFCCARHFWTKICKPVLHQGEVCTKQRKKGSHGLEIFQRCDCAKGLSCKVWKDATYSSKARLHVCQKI
Method: Dkk-1 specific antibodies were detected using the following ELISA based method. rhuDkk-1 protein (R&D systems cat no. 1096 DK/CF) was diluted to 1 ug/ml in coating buffer (Sigma carbonate/bicarbonate coating buffer pH 9.6 Cat No. C-3041 made up according to manufacturers instructions). 100 uls of Dkk-1 was added per well to Nunc Maxisorp 96 well plates and incubated overnight at 4° C. Wells were washed 4× with 250 uls/well of wash buffer (0.05% (v/v) Tween-20 (Sigma Cat no. P2287) in dPBS without Ca/Mg++ (Sigma Cat No. D8537)) then blocked with 200 uls/well of blocking buffer (1% PVA (Sigma cat no. 363170) (weight/volume) in dPBS (Sigma cat no.D8537)) for 2 hrs at room temperature. Blocking buffer was then removed by rapid decanting. […]
(§1) Binding of the test antibody to Dkk was determined by addition of a secondary antibody specific for the antibody species. […] Once developed, the plate absorbance was measured at 405 and 490 nm. Absorbance values were presented as the difference between absorbance at both wavelengths.
The ability of JC18 to bind to other species Dkk proteins was assessed using the ELISA protocol described above with the exception that plates were also coated with recombinant rat Dkk-1(R&D systems Cat No. 4010-DK/CF), mouse Dkk-1 (R&D systems Cat No. 1765-DK/CF), mouse Dkk-2 (R&D systems Cat No. 2435-DK/CF), and mouse Dkk-4 (R&D systems Cat No. 3105-DK/CF).

[2] = biological target: T2, Recombinant human Dkk-1 (R&D Systems cat no. 1096-DK/CF), 10xHis tag at the C terminal (human, UniProt O94907 32-266); test: SPR BIAcore 25C, JC18 captured by anti-mouse IgG, Dkk-1 injected
T2 construct: the actual N-terminus of the purified protein is marked in bold italic after residue 30, but the mark is an image lost in the text; also called rhuDkk-1; hDkk-1
T2 sequence: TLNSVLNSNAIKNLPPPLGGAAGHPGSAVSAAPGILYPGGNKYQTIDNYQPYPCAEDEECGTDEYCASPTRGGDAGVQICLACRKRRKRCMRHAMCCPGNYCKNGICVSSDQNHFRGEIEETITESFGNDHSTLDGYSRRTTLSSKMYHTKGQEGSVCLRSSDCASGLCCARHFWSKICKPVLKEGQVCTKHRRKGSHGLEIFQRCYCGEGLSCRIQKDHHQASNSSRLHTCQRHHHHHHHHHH
Method: (§2) For this assay, polyclonal anti-mouse IgG was amine-coupled to the BIAcore chip. Anti-Dkk-1 antibody JC18 is at 6.53 μg/ml, and was captured for 1 min at 5 μl/min. A five-fold series dilution of human, mouse or rat Dkk-1 (R&D Systems; from 0.4-250 nM) was injected for 1 min at 50-100 μl/min. Dissociation was monitored for 3-5 min. The chip was regenerated with two 30-sec pulses of 100 mM H₃PO₄.

[3] = biological target: T3, recombinant mouse Dkk-1 (R&D systems Cat No. 1765-DK/CF) (mouse, UniProt O54908 32-272); test: as above
T3 construct: Bought
T3 sequence (looked up): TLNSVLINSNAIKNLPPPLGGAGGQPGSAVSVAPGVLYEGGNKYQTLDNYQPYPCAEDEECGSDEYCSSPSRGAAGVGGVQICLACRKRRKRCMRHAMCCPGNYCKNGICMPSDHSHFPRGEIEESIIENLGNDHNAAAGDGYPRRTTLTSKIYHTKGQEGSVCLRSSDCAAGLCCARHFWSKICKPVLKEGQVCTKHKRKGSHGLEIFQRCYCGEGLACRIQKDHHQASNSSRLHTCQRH
Method: as §2

[4] = biological target: T4, recombinant rat Dkk-1 (R&D systems Cat No. 4010-DK/CF) (rat); test: as above
T4 construct: Bought
Method: as §2

[5] = biological target: T2, Recombinant human Dkk-1 (R&D Systems …); test: ELISA, plate coated with human DKK-1 at 1.0 ug/ml, JC18 titrated, OD read
Method: Dkk-1 specific antibodies were detected using the following ELISA based method. rhuDkk-1 protein (R&D systems cat no. 1096 DK/CF) was diluted to 1 ug/ml in coating buffer (Sigma carbonate/bicarbonate coating buffer pH 9.6 Cat No. C-3041 made up according to manufacturers instructions). 100 uls of Dkk-1 was added per well to Nunc Maxisorp 96 well plates and incubated overnight at 4° C. Wells were washed 4× with 250 uls/well of wash buffer (0.05% (v/v) Tween-20 (Sigma Cat no. P2287) in dPBS without Ca/Mg++ (Sigma Cat No. D8537)) then blocked with 200 uls/well of blocking buffer (1% PVA (Sigma cat no. 363170) (weight/volume) in dPBS (Sigma cat no.D8537)) for 2 hrs at room temperature. Blocking buffer was then removed by rapid decanting. Antibodies were diluted by consecutive 2-fold serial dilutions in blocking buffer and applied to each plate at 100 ul per well. Plates were incubated for 1 hour at RT and then washed as described above.
as §1

[6] = biological target: T5, recombinant human Dkk3 (R&D systems Cat No. 1118-DK/CF) (human, UniProt Q9UBP4 22-350); test: ELISA, plate coated with human DKK-3 at 1.0 ug/ml, JC18 titrated, OD read
T5 construct: Bought; also called hDkk-3
T5 sequence (Q9UBP4 22-350 limits assumed): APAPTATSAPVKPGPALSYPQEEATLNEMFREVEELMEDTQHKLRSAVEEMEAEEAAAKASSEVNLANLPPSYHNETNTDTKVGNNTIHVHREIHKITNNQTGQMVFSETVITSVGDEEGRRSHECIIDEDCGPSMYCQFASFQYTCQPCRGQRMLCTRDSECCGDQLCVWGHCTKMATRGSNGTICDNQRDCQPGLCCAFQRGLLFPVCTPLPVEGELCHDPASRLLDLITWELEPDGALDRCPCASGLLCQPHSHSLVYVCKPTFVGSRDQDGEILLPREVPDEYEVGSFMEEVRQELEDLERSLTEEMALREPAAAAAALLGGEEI

binding result [1]: no binding (tested: 5 ug/ml) | Kd [2]: 0.65 nM | koff [2]: 0.00207 s⁻¹ | kon [2]: 3.18e+06 M⁻¹ s⁻¹ | Kd [3]: 1.5 nM | koff [3]: 0.00254 s⁻¹ | kon [3]: 1.74e+06 M⁻¹ s⁻¹ | Kd [4]: 0.72 nM | koff [4]: 0.00275 s⁻¹ | kon [4]: 3.8e+06 M⁻¹ s⁻¹ | EC50 (read off the curve) [5]: ~3 ng/mL | binding result [6]: no binding (tested: 5 ug/ml)
B1: JC18 wildtype (mouse) monoclonal antibody (antibody, mouse IgG1, V domains shown)
VH: EVKLVESGGGLVKPGGSLKLSCAASGFTFSNYAMSWVRQTPEKRLEWVASISGGGDTYYPDSVKGRFTISRDNVRNILYLQMSSLRSEDTAMYYCATSLENYAMDYWGQGTSITVSS
VL: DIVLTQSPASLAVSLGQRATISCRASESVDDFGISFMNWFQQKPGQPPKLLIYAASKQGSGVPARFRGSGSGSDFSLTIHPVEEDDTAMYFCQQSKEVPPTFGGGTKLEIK
notes: also called muMabJC18; MabJC18
